Assay results from doi:10.1101/783266.

Tests used:
Assay in all cases: BLI
[1] = biological target: LRX1^ΔE-FLAG (Arabidopsis thaliana) (UniProt O65375)
[2] = biological target: LRX4^ΔE-FLAG (Arabidopsis thaliana) (UniProt Q9LHF1)
[3] = biological target: LRX5^ΔE-FLAG (Arabidopsis thaliana) (UniProt Q9SN46)

Measured: Kd

Sequence of UniProt Q9SN46 (Q9SN46 32-857, stated change not applied): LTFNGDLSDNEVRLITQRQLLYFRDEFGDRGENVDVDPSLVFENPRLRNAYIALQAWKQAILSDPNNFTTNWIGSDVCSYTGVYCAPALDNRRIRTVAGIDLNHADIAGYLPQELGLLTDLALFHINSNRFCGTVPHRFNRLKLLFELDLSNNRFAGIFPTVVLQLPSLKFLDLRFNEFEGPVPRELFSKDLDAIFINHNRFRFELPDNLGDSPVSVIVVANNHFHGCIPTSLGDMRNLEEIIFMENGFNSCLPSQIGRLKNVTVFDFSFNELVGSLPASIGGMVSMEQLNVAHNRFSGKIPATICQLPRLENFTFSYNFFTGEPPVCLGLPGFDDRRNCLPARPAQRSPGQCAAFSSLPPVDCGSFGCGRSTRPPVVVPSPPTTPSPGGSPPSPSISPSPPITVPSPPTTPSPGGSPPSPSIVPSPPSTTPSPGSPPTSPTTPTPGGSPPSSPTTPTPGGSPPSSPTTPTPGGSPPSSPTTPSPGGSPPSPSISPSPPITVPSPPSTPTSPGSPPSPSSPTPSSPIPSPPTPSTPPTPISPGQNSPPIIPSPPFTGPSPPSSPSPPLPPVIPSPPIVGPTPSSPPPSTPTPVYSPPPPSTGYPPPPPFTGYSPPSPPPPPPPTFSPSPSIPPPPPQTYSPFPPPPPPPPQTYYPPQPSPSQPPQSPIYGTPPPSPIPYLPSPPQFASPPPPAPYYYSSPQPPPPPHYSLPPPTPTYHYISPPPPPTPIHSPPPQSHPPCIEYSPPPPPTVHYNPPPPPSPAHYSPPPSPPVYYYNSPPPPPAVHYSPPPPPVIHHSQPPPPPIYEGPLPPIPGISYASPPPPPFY
Sequence of UniProt O65375 (O65375 27-744, stated change not applied): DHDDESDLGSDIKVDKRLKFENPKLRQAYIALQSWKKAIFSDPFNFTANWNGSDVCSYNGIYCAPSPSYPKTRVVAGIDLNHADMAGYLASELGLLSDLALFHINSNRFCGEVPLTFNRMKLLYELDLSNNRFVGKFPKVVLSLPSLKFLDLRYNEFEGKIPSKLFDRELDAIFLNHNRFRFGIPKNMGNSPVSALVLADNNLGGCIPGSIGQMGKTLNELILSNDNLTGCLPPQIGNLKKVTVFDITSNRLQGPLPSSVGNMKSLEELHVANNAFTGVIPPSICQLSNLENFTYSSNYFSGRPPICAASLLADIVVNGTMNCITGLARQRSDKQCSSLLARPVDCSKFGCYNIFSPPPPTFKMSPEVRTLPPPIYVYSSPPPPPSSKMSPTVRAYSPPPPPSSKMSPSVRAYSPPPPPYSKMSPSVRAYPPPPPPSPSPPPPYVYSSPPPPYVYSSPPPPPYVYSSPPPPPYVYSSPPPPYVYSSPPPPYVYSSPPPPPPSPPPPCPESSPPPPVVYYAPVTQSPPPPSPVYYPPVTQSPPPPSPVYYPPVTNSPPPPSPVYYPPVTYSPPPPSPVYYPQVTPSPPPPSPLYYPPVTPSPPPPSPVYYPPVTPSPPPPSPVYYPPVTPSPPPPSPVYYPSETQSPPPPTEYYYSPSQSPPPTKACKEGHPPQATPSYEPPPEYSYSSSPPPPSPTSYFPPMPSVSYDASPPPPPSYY
Sequence of UniProt Q9LHF1 (Q9LHF1 26-494, stated change not applied): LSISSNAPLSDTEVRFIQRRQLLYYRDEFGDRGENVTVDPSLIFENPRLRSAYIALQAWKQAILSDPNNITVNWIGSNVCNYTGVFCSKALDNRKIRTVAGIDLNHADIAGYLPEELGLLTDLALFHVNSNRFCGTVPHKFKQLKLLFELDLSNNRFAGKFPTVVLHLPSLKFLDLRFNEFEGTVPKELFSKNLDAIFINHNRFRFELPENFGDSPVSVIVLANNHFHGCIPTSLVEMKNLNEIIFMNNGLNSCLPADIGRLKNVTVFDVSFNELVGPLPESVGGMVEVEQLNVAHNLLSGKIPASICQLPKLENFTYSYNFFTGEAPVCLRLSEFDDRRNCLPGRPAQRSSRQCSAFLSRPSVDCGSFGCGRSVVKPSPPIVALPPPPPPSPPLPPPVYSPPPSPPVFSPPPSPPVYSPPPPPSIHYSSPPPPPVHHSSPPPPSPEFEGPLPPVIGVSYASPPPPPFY

B1: RALF1, in vitro synthesized peptide (peptide)
peptide: ATTKYISYQSLKRNSVPCSRRGASYYNCQNGAQANPYSRGCSKIARCRS
5 nM: all assays above
